Laboratory results from PMC5430726 (2017).

Target: T1, SLP65 peptide (Homo sapiens, UniProt Q8WV28)
T1 chain: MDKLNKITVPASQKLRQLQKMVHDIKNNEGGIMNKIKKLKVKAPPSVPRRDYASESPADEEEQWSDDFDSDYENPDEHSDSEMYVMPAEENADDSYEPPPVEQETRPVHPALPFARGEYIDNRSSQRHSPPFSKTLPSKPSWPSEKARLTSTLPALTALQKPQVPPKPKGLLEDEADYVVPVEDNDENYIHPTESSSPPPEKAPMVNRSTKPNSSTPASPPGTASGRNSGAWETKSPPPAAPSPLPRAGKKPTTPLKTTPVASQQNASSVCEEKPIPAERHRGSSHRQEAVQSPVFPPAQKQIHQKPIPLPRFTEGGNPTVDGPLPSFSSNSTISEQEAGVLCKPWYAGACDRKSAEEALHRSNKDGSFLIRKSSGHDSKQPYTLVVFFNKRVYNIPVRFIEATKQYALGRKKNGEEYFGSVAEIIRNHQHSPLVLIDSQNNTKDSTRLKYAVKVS
Experiment: ITC

B1: Grb2 SH3C (protein)
chain: QQPTYVQALFDFDPQEDGELGFRRGDFIHVMDNSDPNWWKGACHGQTGMFPRNYVTPVNR
modifications: Grb2 SH3C pre-bound to Vav SH3N
Kd: 33.3 µM
